Experiment in all cases: SPR
In one series the target is T1, GkDnaC R344A (Geobacillus kaustophilus HTA426, UniProt Q5KU75 1-454, R344A).
T1 sequence: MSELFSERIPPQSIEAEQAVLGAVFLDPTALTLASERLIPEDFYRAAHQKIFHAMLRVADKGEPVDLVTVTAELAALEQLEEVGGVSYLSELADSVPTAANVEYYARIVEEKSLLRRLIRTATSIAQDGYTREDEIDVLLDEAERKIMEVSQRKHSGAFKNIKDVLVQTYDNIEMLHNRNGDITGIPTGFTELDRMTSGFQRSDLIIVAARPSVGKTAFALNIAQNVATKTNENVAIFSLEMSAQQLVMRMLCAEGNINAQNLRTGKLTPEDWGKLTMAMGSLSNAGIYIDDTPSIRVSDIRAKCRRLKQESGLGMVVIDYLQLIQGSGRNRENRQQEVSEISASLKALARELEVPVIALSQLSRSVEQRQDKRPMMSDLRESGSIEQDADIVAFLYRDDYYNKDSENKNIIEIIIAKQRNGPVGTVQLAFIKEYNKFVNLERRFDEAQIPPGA

A further series has as its target T2, GkDnaC R145A (Geobacillus kaustophilus HTA426, UniProt Q5KU75 1-454, R145A).
T2 sequence: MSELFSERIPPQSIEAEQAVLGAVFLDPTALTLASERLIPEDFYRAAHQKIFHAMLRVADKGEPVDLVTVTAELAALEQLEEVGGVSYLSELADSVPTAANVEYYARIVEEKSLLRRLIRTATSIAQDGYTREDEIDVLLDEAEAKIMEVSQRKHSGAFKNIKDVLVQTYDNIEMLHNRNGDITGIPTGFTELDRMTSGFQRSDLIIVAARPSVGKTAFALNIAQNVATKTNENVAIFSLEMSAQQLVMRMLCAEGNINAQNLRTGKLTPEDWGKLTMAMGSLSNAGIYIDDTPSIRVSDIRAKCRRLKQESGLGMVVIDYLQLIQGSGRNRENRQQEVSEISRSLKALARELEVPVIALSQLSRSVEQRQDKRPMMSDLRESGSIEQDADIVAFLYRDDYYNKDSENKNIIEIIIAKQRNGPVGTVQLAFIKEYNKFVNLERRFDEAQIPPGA

For a further series, the target named is T3, GkDnaC R120A (Geobacillus kaustophilus HTA426, UniProt Q5KU75 1-454, R120A).
T3 sequence: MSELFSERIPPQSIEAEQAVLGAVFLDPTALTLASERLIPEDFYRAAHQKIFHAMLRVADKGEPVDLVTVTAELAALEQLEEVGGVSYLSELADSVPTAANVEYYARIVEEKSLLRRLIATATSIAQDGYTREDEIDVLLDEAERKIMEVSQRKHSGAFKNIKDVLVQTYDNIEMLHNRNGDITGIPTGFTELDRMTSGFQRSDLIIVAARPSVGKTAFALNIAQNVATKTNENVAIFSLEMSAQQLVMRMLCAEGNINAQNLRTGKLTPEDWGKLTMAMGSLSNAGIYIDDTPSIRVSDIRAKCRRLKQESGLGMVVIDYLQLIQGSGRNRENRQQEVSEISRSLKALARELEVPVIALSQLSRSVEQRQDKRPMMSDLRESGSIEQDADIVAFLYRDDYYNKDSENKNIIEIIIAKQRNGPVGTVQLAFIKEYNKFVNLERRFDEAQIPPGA

The target in series [1] is T4, GkDnaC R145K146A double mutant (Geobacillus kaustophilus HTA426, UniProt Q5KU75 1-454, R145A;K146A).
T4 sequence: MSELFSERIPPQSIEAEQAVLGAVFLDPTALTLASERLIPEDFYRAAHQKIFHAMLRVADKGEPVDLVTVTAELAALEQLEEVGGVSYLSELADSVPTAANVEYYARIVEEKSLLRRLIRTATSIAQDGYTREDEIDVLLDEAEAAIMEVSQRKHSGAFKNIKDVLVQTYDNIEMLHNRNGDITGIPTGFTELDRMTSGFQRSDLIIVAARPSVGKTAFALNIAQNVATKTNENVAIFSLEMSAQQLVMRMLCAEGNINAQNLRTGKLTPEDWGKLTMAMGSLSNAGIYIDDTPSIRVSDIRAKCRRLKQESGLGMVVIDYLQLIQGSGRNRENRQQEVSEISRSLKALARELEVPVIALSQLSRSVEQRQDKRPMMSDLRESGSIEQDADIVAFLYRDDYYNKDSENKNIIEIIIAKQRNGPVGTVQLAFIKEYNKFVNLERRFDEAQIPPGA

As to TTTTTTTTTTTTTTTTTTTTTTTTTTTTTT (ssDNA) [5'Bio-(dT)30], the dissociation constant Kd was determined as 17.9 µM with GkDnaC R344A, 1.39 µM with GkDnaC R145A, 1.73 µM with GkDnaC R120A and 27 µM in series [1].

The values are drawn from paper PMC2647316 (Nucleic Acids Research, 2008).
